Measured values reported in patent US20170298106A1 (ZYNGENIA, published 2017).
Where no end group is shown, it is not given here. MBP = maltose binding protein (MBP), fused to the peptide

T1: angiopoietin-2 (Ang2) (human, UniProt O15123 68-496, limits assumed)
T1 construct: Plain and biotinylated Ang2 are kept as one molecule; also called rhAng2; recombinant Ang2
T1 sequence (looked up): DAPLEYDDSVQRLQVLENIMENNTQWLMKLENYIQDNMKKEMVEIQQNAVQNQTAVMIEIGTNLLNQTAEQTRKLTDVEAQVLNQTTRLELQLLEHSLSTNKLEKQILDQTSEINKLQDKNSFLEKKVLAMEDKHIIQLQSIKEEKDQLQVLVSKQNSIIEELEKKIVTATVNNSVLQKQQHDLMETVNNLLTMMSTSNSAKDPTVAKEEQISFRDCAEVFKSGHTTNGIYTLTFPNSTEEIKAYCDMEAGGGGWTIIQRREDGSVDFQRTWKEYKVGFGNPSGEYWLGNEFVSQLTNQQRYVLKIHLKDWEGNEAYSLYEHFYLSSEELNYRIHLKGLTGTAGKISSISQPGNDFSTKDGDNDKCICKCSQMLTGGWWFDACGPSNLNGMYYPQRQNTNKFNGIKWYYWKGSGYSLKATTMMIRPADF


What follows are binders tested against insulin receptor (UniProt P06213-2 28-944, limits assumed) (assay: not described).
Sequence of insulin receptor (P06213 other isoform, or with tags, fused parts or gaps limits assumed): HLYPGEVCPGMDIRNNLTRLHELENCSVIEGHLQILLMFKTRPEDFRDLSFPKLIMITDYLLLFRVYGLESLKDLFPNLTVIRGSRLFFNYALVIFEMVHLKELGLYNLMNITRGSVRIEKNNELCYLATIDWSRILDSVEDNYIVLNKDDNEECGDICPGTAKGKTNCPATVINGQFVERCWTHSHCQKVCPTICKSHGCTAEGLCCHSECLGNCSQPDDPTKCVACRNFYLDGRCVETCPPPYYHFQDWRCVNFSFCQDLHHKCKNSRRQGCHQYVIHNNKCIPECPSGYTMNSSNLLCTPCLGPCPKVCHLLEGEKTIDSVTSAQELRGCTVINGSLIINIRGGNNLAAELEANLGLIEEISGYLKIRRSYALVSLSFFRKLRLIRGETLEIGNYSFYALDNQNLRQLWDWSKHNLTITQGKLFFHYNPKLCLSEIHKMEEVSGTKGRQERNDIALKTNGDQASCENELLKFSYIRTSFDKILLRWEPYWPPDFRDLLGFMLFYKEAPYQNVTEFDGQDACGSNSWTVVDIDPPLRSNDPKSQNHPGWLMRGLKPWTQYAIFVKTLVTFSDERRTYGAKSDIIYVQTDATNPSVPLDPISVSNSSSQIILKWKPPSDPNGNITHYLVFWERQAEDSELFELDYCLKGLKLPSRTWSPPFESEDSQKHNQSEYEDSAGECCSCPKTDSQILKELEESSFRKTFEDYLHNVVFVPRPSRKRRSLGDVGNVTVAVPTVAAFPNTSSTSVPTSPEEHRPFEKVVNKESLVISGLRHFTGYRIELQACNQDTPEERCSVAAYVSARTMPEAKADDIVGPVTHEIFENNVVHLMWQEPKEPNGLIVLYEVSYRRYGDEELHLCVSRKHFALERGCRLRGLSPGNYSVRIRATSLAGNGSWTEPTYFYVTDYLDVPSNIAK

Binder | binding result
NFYQCIEQLSSGPAEKSRGQWQECRTG [Rm4-411] | no binding
NFYQCIDLLMAYPAEKSRGQWQECRTGG [Rm4-39] | no binding
NFYQCIEVFWGRPAEKSRGQWQECRTG [Rm4-410] | no binding
NFYQCIELLSARPAEKSRGQWAECRAG [Rm4-415] | no binding

Now from value to binder:

binding result | Binder
no binding | NFYQCIESLAGGPAEKSRGQWQECRTG [Rm4-45]
no binding | NFYQCIEMLASHPAEKSRGQWQECRTGG [Rm4-31]
no binding | NFYQCIEALSRSPAEKSRGQWQECRTGG [Rm4-319]
no binding | NFYQCIEALQSRPAEKSRGQWQECRTGG [Rm4-316]
no binding | NFYQCIEQLALRPAEKSRGQWQECRTGG [Rm4-33]
no binding | NFYQCIEALVGVPAEKSRGQWQECRTG [Rm4-46]
no binding | NFYQCIERLVTGPAEKSRGQWQECRTGG [Rm4-310]
no binding | NFYQCIEHLSGSPAEKSRGQWQECRTG [Rm4-44]
no binding | NFYQCIEMLSLPPAEKSRGQWQECRTG [Rm4-49]
no binding | NFYQCIEYLAMKPAEKSRGQWQECRTGG [Rm4-314]
no binding | NFYQCIEALARTPAEKSRGQWVECRAP [Rm4-417]

What follows are binders tested against T2, VEGF (human, UniProt P15692-4 27-191) (assay: cell-based or functional assay).
T2 sequence (P15692 other isoform, or with tags, fused parts or gaps limits assumed): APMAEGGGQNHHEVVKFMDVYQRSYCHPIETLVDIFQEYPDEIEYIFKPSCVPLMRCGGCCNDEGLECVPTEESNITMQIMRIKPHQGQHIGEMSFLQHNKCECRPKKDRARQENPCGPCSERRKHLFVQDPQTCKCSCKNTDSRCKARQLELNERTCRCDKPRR

Binder | inhibition of VEGF-induced proliferation of HUVEC, IC50
AVA-lm32(H) (bispecific antibody, not shown: a dimerising Fc or GST, also called AVASTIN with the lm32 MRD fused to the heavy chain) heavy (part 1 of 2): EVQLVESGGGLVQPGGSLRLSCAASGYTFTNYGMNWVRQAPGKGLEWVGWINTYTGEPTYAADFKRRFTFSLDTSKSTAYLQMNSLRAEDTAVYYCAKYPHYYGSSHWYFDVWGQGTLVTVSS heavy (part 2 of 2): MGAQTNFMPMDNDELLLYEQFILQQGLE VL: DIQMTQSPSSLSASVGDRVTITCSASQDISNYLNWYQQKPGKAPKVLIYFTSSLHSGVPSRFSGSGSGTDFTLTISSLQPEDFATYYCQQYSTVPWTFGQGTKVEIKR | 360 pM

The binders below were run against T1, angiopoietin-2 (Ang2) (assay: binding of MBP fusion to Ang2).

Binder | EC50
{MBP}-KSLSLSPGSGGGSMGAQTNFMPMDNDELLLYEQFI (other, not shown: large carriers, also: N-terminal MBP fusion, not in chain) [MBP fusion of LM32 variant SEQ ID NO:32] | 1080 pM
{MBP}-KSLSLSPGSGGGSMGAQTNFMPMDNEELLLYEQFI (other, not shown: large carriers, also: N-terminal MBP fusion, not in chain) [MBP fusion of LM32 variant SEQ ID NO:33] | 20700 pM
{MBP}-KSLSLSPGSGGGSMGAQTNFMPMDNDEALLYEQFILQQGLE (other, not shown: large carriers, also: N-terminal MBP fusion, not in chain) [MBP fusion of LM32 variant SEQ ID NO:90] | 182 pM
{MBP}-KSLSLSPGSGGGSMGAQTNFMPMDNDEGLLYEEFILQQGLE (other, not shown: large carriers, also: N-terminal MBP fusion, not in chain) [MBP fusion of LM32 variant SEQ ID NO:96] | 922 pM
{MBP}-KSLSLSPGSGGGSMGAQTNFMPMDQDELLLYEQFILQQGLE (other, not shown: large carriers, also: N-terminal MBP fusion, not in chain) [MBP fusion of LM32 variant SEQ ID NO:99] | 383 pM
{MBP}-KSLSLSPGSGGGSMGAQTNFMPMDNDEALLYEEFILQQGLE (other, not shown: large carriers, also: N-terminal MBP fusion, not in chain) [MBP fusion of LM32 variant SEQ ID NO:97] | 426 pM
{MBP}-KSLSLSPGSGGGSMGAQTNFMPMDDDELLLYEQFILQQGLE (other, not shown: large carriers, also: N-terminal MBP fusion, not in chain) [MBP fusion of LM32 variant SEQ ID NO:100] | 240 pM
{MBP}-KSLSLSPGSGGGSMGAQTNFMPMDNDEALLYEQFIYQQGLE (other, not shown: large carriers, also: N-terminal MBP fusion, not in chain) [MBP fusion of LM32 variant SEQ ID NO:94] | 392 pM
{MBP}-KSLSLSPGSGGGSMGAQTNFMPMDNDELTLYEQFILQQGLE (other, not shown: large carriers, also: N-terminal MBP fusion, not in chain) [MBP fusion of LM32 variant SEQ ID NO:91] | 1420 pM
{MBP}-KSLSLSPGSGGGSMGAQTNFMPMDNDEGLLYEQFIYQQGLE (other, not shown: large carriers, also: N-terminal MBP fusion, not in chain) [MBP fusion of LM32 variant SEQ ID NO:93] | 902 pM

What follows are binders tested against T1, angiopoietin-2 (Ang2) (assay: ELISA on rhAng2-coated wells, MRD-MBP fusion, anti-MBP detection; EC50 by 4 parameter fit).
Description: MBP fusion proteins were serially diluted in Blocking buffer and added to wells for 2 hours at RT. After washing (8×300 μl wash buffer), samples were treated with HRP-mouse anti MBP mAb (NEB, cat # E8038S), diluted 1:4000 in Blocking buffer. After incubation for 1 hour at RT, wells were washed (8×300 μl wash buffer) prior to receiving 100 μl of TMB substrate (KPL Laboratories). Color development was stopped with 100 μl of H₂SO₄, and absorbance was read at 450 nm.
Bound fusion proteins were detected with anti-MBP mAb. Assayed proteins represent mutational variants of the sequence […] […] (L17D) (SEQ ID NO:107). In this series, the motif MDD within L17D was mutated at the first D to all other possible amino acids (except cysteine). Other MRDs tested were “Lm32 KtoS” and a dimer of Lm32 (2×Lm32).

Binder | EC50
{MBP}-PGSGGGSMGAQTNFMPMDNDELLLYEQFILQQGLE (other, not shown: small tags and cut ends, also: N-terminal MBP fusion, not in chain) [Lm32 KtoS-MBP fusion] | 199 pM

What follows are binders tested against T2, VEGF (assay: sandwich ELISA, human VEGF coated (30 ng/ml), zybody varied in 3.876 ug/ml biotinylated Ang2, detection with HRP-streptavidin, A450).
Description: (§1) Ninety-six-well plates were coated overnight with human VEGF (PeproTech, Inc. cat#100-20) at 30 ng/ml (100 μl/well). […] After washing (8×300 μl wash buffer), parallel samples received either HRP-conjugated anti-human kappa chain mAb (Abeam, cat # ab79115) diluted 1:1000 in Blocking buffer or HRP-conjugated streptavidin (Thermo Scientific cat#N100) diluted 1:4000 diluted in Blocking buffer. After incubation for 1 hour at RT, wells were washed (8×300 μl wash buffer) prior to receiving 100 μl of TMB substrate (KPL Laboratories). Color development was stopped with 100 μl of H₂SO₄, and absorbance was read at 450 nm.

Binder | EC50 (read off the curve)
AVA-lm32(H) (bispecific antibody, not shown: a dimerising Fc or GST, also called AVASTIN with the lm32 MRD fused to the heavy chain) heavy (part 1 of 2): EVQLVESGGGLVQPGGSLRLSCAASGYTFTNYGMNWVRQAPGKGLEWVGWINTYTGEPTYAADFKRRFTFSLDTSKSTAYLQMNSLRAEDTAVYYCAKYPHYYGSSHWYFDVWGQGTLVTVSS heavy (part 2 of 2): MGAQTNFMPMDNDELLLYEQFILQQGLE VL: DIQMTQSPSSLSASVGDRVTITCSASQDISNYLNWYQQKPGKAPKVLIYFTSSLHSGVPSRFSGSGSGTDFTLTISSLQPEDFATYYCQQYSTVPWTFGQGTKVEIKR | ~700 pM

These binders were tested against T3, rHER2-Fc (UniProt P04626 23-652) (assay: ELISA, rHER2-Fc coated (20 ng/ml), sample diluted in 1.94 ug/ml biotinylated Ang2, detection with HRP anti-human kappa chain mAb, A450).
T3 construct: Bought reagent; also called Her2 (ErbB2) Fc; ErbB2-Fc
Description: as §1, with “with rHER2-Fc (R&D cat#1129-ER-050)” for “with human VEGF (PeproTech, Inc. cat#100-20)”, “at 20” for “at 30”, “ng/ml (100W/well).” for “ng/ml (100 μl/well).”, “chain mAb-(Abeam,” for “chain mAb (Abeam,”, “# ab79115-1)” for “# ab79115)”

Binder | binding result
AVA-lm32(H) (bispecific antibody, not shown: a dimerising Fc or GST, also called AVASTIN with the lm32 MRD fused to the heavy chain) heavy (part 1 of 2): EVQLVESGGGLVQPGGSLRLSCAASGYTFTNYGMNWVRQAPGKGLEWVGWINTYTGEPTYAADFKRRFTFSLDTSKSTAYLQMNSLRAEDTAVYYCAKYPHYYGSSHWYFDVWGQGTLVTVSS heavy (part 2 of 2): MGAQTNFMPMDNDELLLYEQFILQQGLE VL: DIQMTQSPSSLSASVGDRVTITCSASQDISNYLNWYQQKPGKAPKVLIYFTSSLHSGVPSRFSGSGSGTDFTLTISSLQPEDFATYYCQQYSTVPWTFGQGTKVEIKR | no binding (tested: about 7 nM)

The binders below were run against T2, VEGF (assay: ELISA, human VEGF coated (30 ng/ml), sample diluted in 3.876 ug/ml biotinylated Ang2, detection with HRP anti-human kappa chain mAb, A450).
Description: as §1

Binder | EC50 (read off the curve) | binding result
AVA-lm32(H) (bispecific antibody, not shown: a dimerising Fc or GST, also called AVASTIN with the lm32 MRD fused to the heavy chain) heavy (part 1 of 2): EVQLVESGGGLVQPGGSLRLSCAASGYTFTNYGMNWVRQAPGKGLEWVGWINTYTGEPTYAADFKRRFTFSLDTSKSTAYLQMNSLRAEDTAVYYCAKYPHYYGSSHWYFDVWGQGTLVTVSS heavy (part 2 of 2): MGAQTNFMPMDNDELLLYEQFILQQGLE VL: DIQMTQSPSSLSASVGDRVTITCSASQDISNYLNWYQQKPGKAPKVLIYFTSSLHSGVPSRFSGSGSGTDFTLTISSLQPEDFATYYCQQYSTVPWTFGQGTKVEIKR | ~500 pM | 
HER-lm32(H) (bispecific antibody, not shown: a dimerising Fc or GST, also called HERCEPTIN-lm32 fusion; HERCEPTIN lm-32) heavy (part 1 of 2): not shown heavy (part 2 of 2): KSLSLSPGKGGGSMGAQTNFMPMDNDELLLYEQFILQQGLE VL: not shown |  | no binding (tested: about 20 nM)

The binders below were run against T4, insulin-like growth factor-I receptor (IGF1R) (UniProt P08069 31-932, limits assumed) (assay: ELISA, coated antigen, absorbance at 405 nm, one condition per construct, BSA-coated wells as control; the bar labelled Antigen is the antigen of the MRD of the construct, here IGF1R (RP)).
T4 construct: also called immobilized IGF-1R

Binder | binding result
Her-1L-RP (bispecific antibody, not shown: a dimerising Fc or GST, Her = HERCEPTIN) light (part 1 of 2): not shown light (part 2 of 2): SSGGGGSGGGGGGSSRSSSFYSCLESLVNGPAEKSRGQWDGCRKK VH: not shown | no binding

Each binder was assayed against T5, integrin αvβ3 (UniProt P06756 31-992; P05106 27-718, limits assumed) (assay: ELISA, coated antigen, absorbance at 405 nm, one condition per construct, BSA-coated wells as control; the bar labelled Antigen is the antigen of the MRD of the construct, here integrin avb3).
T5 construct: Antigen of the ELISAs
T5 sequence (P06756 31-992 limits assumed, chain 1 of 2): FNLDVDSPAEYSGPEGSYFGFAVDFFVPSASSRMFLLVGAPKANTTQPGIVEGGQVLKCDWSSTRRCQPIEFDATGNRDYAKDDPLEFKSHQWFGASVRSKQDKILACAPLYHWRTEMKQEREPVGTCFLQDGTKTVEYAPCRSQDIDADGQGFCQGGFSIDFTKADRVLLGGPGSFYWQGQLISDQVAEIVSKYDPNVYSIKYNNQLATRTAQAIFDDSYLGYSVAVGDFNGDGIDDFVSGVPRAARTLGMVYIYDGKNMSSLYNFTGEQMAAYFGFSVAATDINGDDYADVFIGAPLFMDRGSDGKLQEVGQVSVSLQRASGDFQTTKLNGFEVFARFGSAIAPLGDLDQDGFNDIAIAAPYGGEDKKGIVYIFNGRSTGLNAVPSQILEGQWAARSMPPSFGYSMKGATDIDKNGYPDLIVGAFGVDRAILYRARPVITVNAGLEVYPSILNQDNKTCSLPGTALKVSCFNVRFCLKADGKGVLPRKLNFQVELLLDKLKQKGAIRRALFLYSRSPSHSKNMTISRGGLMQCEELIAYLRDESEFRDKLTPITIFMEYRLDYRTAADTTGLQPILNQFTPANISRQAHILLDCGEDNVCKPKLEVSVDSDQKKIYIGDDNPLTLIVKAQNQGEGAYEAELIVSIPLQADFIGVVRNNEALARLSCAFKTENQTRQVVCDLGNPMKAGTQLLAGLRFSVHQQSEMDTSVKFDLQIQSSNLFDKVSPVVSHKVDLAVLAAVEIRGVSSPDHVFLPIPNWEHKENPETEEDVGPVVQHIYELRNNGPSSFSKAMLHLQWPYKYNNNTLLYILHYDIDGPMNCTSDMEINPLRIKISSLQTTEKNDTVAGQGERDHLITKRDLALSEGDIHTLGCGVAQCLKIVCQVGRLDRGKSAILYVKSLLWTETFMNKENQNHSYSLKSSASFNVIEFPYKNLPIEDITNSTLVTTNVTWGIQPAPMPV
T5 sequence (P05106 27-718 limits assumed, chain 2 of 2): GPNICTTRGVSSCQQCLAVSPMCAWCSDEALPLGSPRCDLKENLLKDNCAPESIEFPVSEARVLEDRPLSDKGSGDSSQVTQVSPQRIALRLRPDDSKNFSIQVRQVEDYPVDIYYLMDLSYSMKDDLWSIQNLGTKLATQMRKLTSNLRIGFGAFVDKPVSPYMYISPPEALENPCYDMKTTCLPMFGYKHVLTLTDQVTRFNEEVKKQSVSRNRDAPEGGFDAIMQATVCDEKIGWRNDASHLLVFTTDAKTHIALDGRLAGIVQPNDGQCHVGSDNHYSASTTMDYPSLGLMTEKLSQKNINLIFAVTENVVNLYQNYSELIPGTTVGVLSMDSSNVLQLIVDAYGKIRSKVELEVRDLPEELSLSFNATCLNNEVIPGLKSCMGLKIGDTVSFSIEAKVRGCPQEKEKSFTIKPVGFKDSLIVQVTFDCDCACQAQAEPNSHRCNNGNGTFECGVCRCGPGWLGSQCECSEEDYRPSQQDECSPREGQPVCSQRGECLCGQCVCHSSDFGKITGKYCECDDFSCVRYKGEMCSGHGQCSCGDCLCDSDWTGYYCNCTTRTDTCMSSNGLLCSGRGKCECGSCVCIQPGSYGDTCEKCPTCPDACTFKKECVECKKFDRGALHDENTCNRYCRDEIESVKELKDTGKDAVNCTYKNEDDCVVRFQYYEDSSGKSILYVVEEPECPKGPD

Binder | binding result
Her-sL-RGD4C (bispecific antibody, not shown: a dimerising Fc or GST, Her = HERCEPTIN) light (part 1 of 2): not shown light (part 2 of 2): GGGSCDCRGDCFC VH: not shown | no binding
